According to publication PMC7104407, “DBC1, p300, HDAC3, and Siah1 coordinately regulate ELL stability and function for expression of its target genes” (Proceedings of the National Academy of Sciences of the …, 2020):

Target: T1, GST–ELL (human, UniProt P55199 1-621)
T1 construct: ELL (ELL1), human elongation factor; also called purified recombinant GST–ELL; source: bacterial expression system, purified
Experiment: pull-down; in vitro direct interaction assay with purified GST–ELL or GST and purified HDAC3
Settings: both partners purified

binding result: binds
B1: HDAC3, purified (enzyme, human, UniProt O15379 1-428, looked up)
chain: MAKTVAYFYDPDVGNFHYGAGHPMKPHRLALTHSLVLHYGLYKKMIVFKPYQASQHDMCRFHSEDYIDFLQRVSPTNMQGFTKSLNAFNVGDDCPVFPGLFEFCSRYTGASLQGATQLNNKICDIAINWAGGLHHAKKFEASGFCYVNDIVIGILELLKYHPRVLYIDIDIHHGDGVQEAFYLTDRVMTVSFHKYGNYFFPGTGDMYEVGAESGRYYCLNVPLRDGIDDQSYKHLFQPVINQVVDFYQPTCIVLQCGADSLGCDRLGCFNLSIRGHGECVEYVKSFNIPLLVLGGGGYTVRNVARCWTYETSLLVEEAISEELPYSEYFEYFAPDFTLHPDVSTRIENQNSRQYLDQIRQTIFENLKMLNHAPSVQIHDVPADLLTYDRTDEADAEERGPEENYSRPEAPNEFYDGDHDNDKESDVEI
notes: histone deacetylase 3, human; also called purified HDAC3; source: overexpressed in mammalian 293T cells, purified (high salt-based purification method)
